# Measured values published in article PMC4256367.
# Biological target: hTau40 (Tau, 2N4R) 1-441 (UniProt P10636)
# Assay: fluorescence lifetime (TCSPC) over time
# [1] = reference: unlabelled P0-Tau (E. coli), sites S202,T205,T212,S214,T231,S235,S262,S356,S396,S404,Y310,S324,T153
Substance,other: final average lifetime [1],also measured
"hTau40 (Tau, 2N4R) 1-441 (from UniProt P10636-8) P20-Tau (Sf9 cells treated with okadaic acid)",–,"other: final average lifetime (reference: P12-Tau (Sf9, no okadaic acid)): stronger; reference 0.6"
"hTau40 (Tau, 2N4R) 1-441 (from UniProt P10636-8) unlabelled P12-Tau (Sf9)",stronger; reference 3.8,–
"hTau40 (Tau, 2N4R) 1-441 (from UniProt P10636-8) unlabelled P20-Tau (Sf9 + okadaic acid)",stronger; reference 3.8,–
"hTau40 (Tau, 2N4R) 1-441 (from UniProt P10636-8) P12-Tau incubated with alkaline phosphatase (P4-Tau)",–,"other: final average lifetime (reference: P12-Tau untreated, sites S202,T205,T212,S214,T231,S235,S262,S356,S396,S404): weaker; reference 0.6"
